± gives the standard deviation of the averaged measurements.
Tested on: Saccharomyces cerevisiae
Assay: protein stability index of tFT-peptide fusion (C-terminal peptide) (PSI (0-1 scale)); higher = more stable (slower turnover)
Conditions: temperature: 30 C
Method: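 MPS profiling in S. cerevisiae of the yeast C-terminome library: the last 12 aa of each annotated ORF are fused to the C-terminus of a sfGFP-mCherry timer, after a GGGS linker. Cells are FACS-sorted into 8 mCherry/sfGFP bins and deep-sequenced. PSI runs from 0 (unstable) to 1 (stable); wild type and das1Δ backgrounds, two technical replicates each.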

[1] = genetic background: das1 deletion

Sequence	protein stability index [1]	protein stability index (genetic background: wild type)
NEPEVQPEAAAN [PUS1 C-terminal 12 aa]	0.679 ± 0.0086	0.69 ± 0.011
VTSGKAHFVLYN [SIM1 C-terminal 12 aa]	0.695 ± 0.017	0.655 ± 0.017
KLSAPIFSILHS [APT2 C-terminal 12 aa]	0.721 ± 0.0083	0.504 ± 0.0051
TISNWIQETKEV [STO1 C-terminal 12 aa]	0.70591 ± 0.00011	0.7293 ± 0.0034
VSDSSYDEYSNE [SYT1 C-terminal 12 aa]	0.679 ± 0.021	0.672 ± 0.03
KPEEEKETLQEE [PAF1 C-terminal 12 aa]	0.69 ± 0.046	0.649 ± 0.031
VFPETDSIFEPV [RAF1 C-terminal 12 aa]	0.733 ± 0.022	0.715 ± 0.0081
KKNGKISEKPKK [PDR15 C-terminal 12 aa]	0.727 ± 0.02	0.677 ± 0.037
YKERDLIDRSAY [VTS1 C-terminal 12 aa]	0.681 ± 0.014	0.706 ± 0.032
YNSGTEGTRFQI [TAR1 C-terminal 12 aa]	0.707 ± 0.018	0.6849 ± 0.0015
DSIRRIREKYSN [APP1 C-terminal 12 aa]	0.6896 ± 0.0039	0.492 ± 0.013
NYQKNEPVEFLE [MIN9 C-terminal 12 aa]	0.711 ± 0.0097	0.656 ± 0.026
SLFPSLETEDKK [MIH1 C-terminal 12 aa]	0.674 ± 0.0077	0.671 ± 0.02
ELYNIIVKSVPK [YRB2 C-terminal 12 aa]	0.673 ± 0.0039	0.695 ± 0.045
KFEKKLYNFLGF [GEP4 C-terminal 12 aa]	0.701 ± 0.028	0.717 ± 0.017
FLRNFKDNRFLQ [YOR121C C-terminal 12 aa]	0.726 ± 0.025	0.6968 ± 0.004
RSNAERKRRSPL [PBP2 C-terminal 12 aa]	0.7121 ± 0.0039	0.68 ± 0.021
FQVVSKKKGRKH [SMY2 C-terminal 12 aa]	0.691 ± 0.017	0.72 ± 0.033
LLRKLSMKRPFS [APL1 C-terminal 12 aa]	0.683 ± 0.016	0.682 ± 0.047
MTSLDICALGIK [RVS161 C-terminal 12 aa]	0.689 ± 0.012	0.675 ± 0.046
EPYNIKYSNSKK [MSD1 C-terminal 12 aa]	0.7 ± 0.03	0.66695 ± 2.1e-06

Sequence	protein stability index [1]	protein stability index (genetic background: wild type)
DDEFGDLDAVFF [SNF6 C-terminal 12 aa]	0.747 ± 0.021	0.739 ± 0.0056
EGKEEIIYDSEG [RAD55 C-terminal 12 aa]	0.6913 ± 0.006	0.677 ± 0.047
LEHYSLSTFVCC [YAL045C C-terminal 12 aa]	0.326 ± 0.032	0.3476 ± 0.0029
SAENEESKEKCE [LAG1 C-terminal 12 aa]	0.696 ± 0.051	0.658 ± 0.021
NSAAFLLMSLKS [STB3 C-terminal 12 aa]	0.674 ± 0.0086	0.679 ± 0.011
RAYCVGFKWVRF [MCH5 C-terminal 12 aa]	0.675 ± 0.02	0.145 ± 0.028
QLAIALSLSEIN [UFO1 C-terminal 12 aa]	0.694 ± 0.011	0.714 ± 0.035
SDDDVSSESEEE [BDF1 C-terminal 12 aa]	0.6997 ± 0.0067	0.658 ± 0.015
AGTDKNTHPSSQ [SNT2 C-terminal 12 aa]	0.692 ± 0.0098	0.694 ± 0.019
NLMEMFTKRDRS [ROD1 C-terminal 12 aa]	0.72 ± 0.022	0.713 ± 0.033
QAQLTAATNAKQ [PDC5 C-terminal 12 aa]	0.6916 ± 0.0017	0.731 ± 0.069
KSAKTAKASQEL [HTA2 C-terminal 12 aa]	0.705 ± 0.017	0.673 ± 0.023
HIFYFVLSYSEW [YIL030W-A C-terminal 12 aa]	0.172 ± 0.022	0.192 ± 0.0083
AKGLAKTEIANQ [GIR2 C-terminal 12 aa]	0.686 ± 0.018	0.656 ± 0.013
DIDDDVGEDSED [RMR1 C-terminal 12 aa]	0.694 ± 0.014	0.662 ± 0.013
SKNDSPKKKGWF [MAS2 C-terminal 12 aa]	0.694 ± 0.027	0.702 ± 0.018
SPPLSTSPDSRR [YLR416C C-terminal 12 aa]	0.7198 ± 0.0012	0.713 ± 0.029
PFIFKTLEEQGL [CCP1 C-terminal 12 aa]	0.743 ± 0.06	0.691 ± 0.065
KNRRRNTKKIAF [RLP24 C-terminal 12 aa]	0.705 ± 0.03	0.6678 ± 0.0055
INKKKSGSGCIC [YPT10 C-terminal 12 aa]	0.696 ± 0.035	0.647 ± 0.026
KQSQRQVPHSIK [SPO21 C-terminal 12 aa]	0.7194 ± 0.0004	0.708 ± 0.011

Sequence	protein stability index [1]	protein stability index (genetic background: wild type)
TNGITTERHKKK [NTG2 C-terminal 12 aa]	0.714 ± 0.0084	0.668 ± 0.028
LSHAQKEIYEFK [UTP25 C-terminal 12 aa]	0.687 ± 0.011	0.691 ± 0.056
QAKFFYQDLMSL [YHL046W-A C-terminal 12 aa]	0.72 ± 0.038	0.739 ± 0.052
DTFFDRVMKVLT [NAN1 C-terminal 12 aa]	0.707 ± 0.034	0.6917 ± 0.0012
FKSGQNMLKDEL [SCJ1 C-terminal 12 aa]	0.681 ± 0.022	0.648 ± 0.0073
RNVDKLDVFSNS [MRM2 C-terminal 12 aa]	0.716 ± 0.019	0.727 ± 0.037
SAEGSDVLYMQK [LSM7 C-terminal 12 aa]	0.671 ± 0.0093	0.6739 ± 0.0053
DAIDNSDEITQD [IRR1 C-terminal 12 aa]	0.709 ± 0.029	0.703 ± 0.064
RGRIAAQKRIAA [RPL17A C-terminal 12 aa]	0.667 ± 0.0084	0.604 ± 0.045
EKIKRDLALKKG [PET100 C-terminal 12 aa]	0.697 ± 0.045	0.661 ± 0.059
RLKSQNVVTYYK [NIP100 C-terminal 12 aa]	0.707 ± 0.032	0.692 ± 0.015
YVASHESQKADE [RRP5 C-terminal 12 aa]	0.6883 ± 0.0054	0.741 ± 0.072
TVGYGILKVMGF [PHO91 C-terminal 12 aa]	0.659 ± 0.012	0.656 ± 0.009
NVIIQDKTKKTQ [MCD4 C-terminal 12 aa]	0.733 ± 0.028	0.671 ± 0.011
NTTRYNASLVNQ [DIA3 C-terminal 12 aa]	0.741 ± 0.031	0.712 ± 0.044
PTQPTVSNKKNN [GPI14 C-terminal 12 aa]	0.7252 ± 0.0055	0.68 ± 0.022
LDKIKTDDTYTS [FYV7 C-terminal 12 aa]	0.7 ± 0.024	0.6966 ± 0.0045
FFKQAEQEQADV [PRP11 C-terminal 12 aa]	0.7024 ± 0.001	0.698 ± 0.0072
SAQRDRRYRKRV [RPS17A C-terminal 12 aa]	0.6665 ± 0.0025	0.69 ± 0.067

From the supplement of paper PMC10724198
